Measurements from patent US6060513A, “Compounds and compositions for delivering active agents” (Emisphere Technologies, Inc., priority 1997, dated 2000).

Experiment: In Vivo Interferon Delivery (ELISA for human interferon)
Parameters: species or system Rats
Details: 1 mg/kg interferon, no carrier

interferon
Mean peak serum interferon concentration (IC): 79±100 | Mean peak serum interferon concentration (PO): 1951±1857
